Experimental data: patent publication US20240067729A1

Tests used:
[1] = molecular target: cynomolgus PD-L1, his tagged (cPD-L1-his) (cynomolgus (Macaca fascicularis)) (UniProt G7PSE7); experiment: ELISA on coated cPD-L1-his, negative control
[2] = molecular target: human PD-L1, his tagged (hPD-L1-his) (human) (UniProt Q9NZQ7); experiment: ELISA on coated hPD-L1-his, negative control
[3] = molecular target: human PD-L1 Fc fusion (hPD-L1-Fc) (human) (UniProt Q9NZQ7); experiment: blocking ELISA: residual biotin-hPD-1-Fc signal on coated hPD-L1-Fc, negative control
Chain of human PD-L1 Fc fusion (hPD-L1-Fc) (human) (Q9NZQ7 19-238 limits assumed): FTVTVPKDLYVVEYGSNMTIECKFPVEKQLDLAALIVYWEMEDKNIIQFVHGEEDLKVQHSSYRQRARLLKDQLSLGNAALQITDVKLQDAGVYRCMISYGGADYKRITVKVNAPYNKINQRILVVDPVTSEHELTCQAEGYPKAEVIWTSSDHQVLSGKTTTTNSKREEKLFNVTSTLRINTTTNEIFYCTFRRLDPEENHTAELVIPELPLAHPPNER

Chain of human PD-L1, his tagged (hPD-L1-his) (human) (Q9NZQ7 19-238 limits assumed): as above
Chain of cynomolgus PD-L1, his tagged (cPD-L1-his) (cynomolgus (Macaca fascicularis)) (G7PSE7 entry or part of it limits assumed, form in doubt): as the sequence (Q9NZQ7 19-238 limits assumed) above, with A33T, A34S, S62N, R68Q, Q82R, F173L, T185A, T192I, H215L counted along it

## NEG (negative control of the hybridoma supernatant screen)
[1]
  A450: 0.0348 A450
[2]
  A450: 0.034 A450
[3]
  Block Residual %: 60%
